Measurements as given in publication PMC4833398.

How the values were obtained:
[1] = biological target: 1VH8-scaffolded V1V2 from HIV-1 strain CAP256-SU (trimeric scaffold); assay: crystal structure
[2] = biological target: these trimeric scaffolded V1V2s (1VH8- and 4F2K-scaffolded), expressed and purified in GnTI- cells; assay: SPR

With “1VH8-scaffolded V1V2 from HIV-1 strain CAP256-SU (trimeric scaffold)” the stoichiometry N [1] was 3.

B1: bNAb CH01 (antibody, V domains shown)
VH: EVQLVESGANVVRPGGSLRLSCKASGFIFENFGFSWVRQAPGKGLQWVAGLNWNGGDTRYADSVKGRFRMSRDNSRNFVYLDMDKVGVDDTAFYYCARGTDYTIDDAGIHYQGSGTFWYFDLWGRGTLVSVSS
VL: EIVLAQSPGTLSLSPGERATLSCRASHNVHPKYFAWYQQKPGQSPRLLIYGGSTRAAGIPGKFSGSGSGTDFTLTISRVDPEDFAVYYCQQYGGSPYTFGQGTKVEIK
In the case of B1, the Kd [2] is reported as 20 to 50 µM.

B2: bNAb PG9 (antibody, V domains shown)
VH: QRLVESGGGVVQPGSSLRLSCAASGFDFSRQGMHWVRQAPGQGLEWVAFIKYDGSEKYHADSVWGRLSISRDNSKDTLYLQMNSLRVEDTATYFCVREAGGPDYRNGYNYYDFYDGYYNYHYMDVWGKGTTVTVSS
VL: QSALTQPASVSGSPGQSITISCNGTSNDVGGYESVSWYQQHPGKAPKVVIYDVSKRPSGVSNRFSGSKSGNTASLTISGLQAEDEGDYYCKSLTSTRRRVFGTGTKLTVL
B2 showed a Kd [2] of 0.024 to 0.5 µM.
